According to patent US12673985B2, “Method for the treatment or prophylaxis of cancer by targeting the extracellular portion of keratin 14 (KRT14) residing on cancer cells” (Hudson Institute of Medical Research, priority 2019, dated 2026):
“Also recorded” adds a separate entry of the source.

Key:
[1] = system: 9,184 individual recombinant human proteins; assay: ProtoArray Human Protein Microarrays v5.0 cross-reactivity profiling; format: binding; conditions: mAb diluted 1:500
Experimental: Proteomic profiling of mAb AN-17 antibody reactivity was performed using Invitrogen™ ProtoArray™ Human Protein Microarrays v5.0 (ThermoFisher Scientific, Waltham MA), comprising 9,184 individual recombinant human proteins spotted in duplicate. All procedures were carried out as previously described (PMID: 29141850; Wilson et al. Cancer Epidemiol Biomarkers Prev. 2018; 27(2):183-192). Arrays were probed using mAb AN-17 diluted 1:500 in wash buffer. Fluorescent detection antibody against IgG heavy and light chains was from Abcam (#ab150119 Goat Anti-Mouse IgG H&L Alexa Fluor® 647, preadsorbed) diluted to […] in wash buffer prior to use. A single array incubated with detection antibody alone was used as a control for non-specific antibody binding.
Array imaging was performed using a Fuji FLA5100 multi wavelength scanner as described (PMID: 29141850; Wilson et al. Cancer Epidemiol Biomarkers Prev. 2018; 27(2):183-192), using a 635 nm excitation laser and dual band pass Cy3/Cy5 filter. Images were acquired at […], with PMT set at 1000V. Array alignment, feature extraction and data normalization were performed as previously described (PMID: 29141850; Wilson et al. Cancer Epidemiol Biomarkers Prev. 2018; 27(2):183-192). Array co-ordinates were obtained from the manufacturer-provided downloadable .GAL files (ThermoFisher Scientific).

[2] = system: MDA-MB-468 breast carcinoma; assay: In vitro wound repair assay; format: cell-based; conditions: mAb 1 μg/ml; 16 hrs
Experimental: (§1) In vitro wound repair assay. Ovarian cancer cells (or other cancer cell lines—BT16, NCI-H1573, AN3CA, SW620 and MDA-MB-468) were grown in complete medium to confluency in a 12-well plate, then serum-starved overnight to synchronize at G0. The following day cell culture medium was removed, and cell monolayers were wounded by scraping with a pipette tip attached to suction. Non-adherent cells were removed by gentle washes with PBS, and complete growth medium with or without mAb AN-17 (1 μg/ml) or commercial KRT14 polyclonal antibody (1 μg/ml) was replaced. The wound area was imaged under a phase microscope (Leica) at regular intervals ranging from 0-72 h. Wound closure was measured in image series using AnalySIS LS Research Software (Olympus) to determine the area of the wound on each day. Experiments were repeated in triplicate with at least six wound areas observed per growth condition.
(§2) In vitro wound repair assays were conducted on the following cancer cell lines: BT16 atypical teratoid rhabdoid (brain) carcinoma, NCI-H1573 lung adenocarcinoma, SJ-GBM2 primary glioblastoma multiforme, AN3CA endometrial carcinoma, SW620 colorectal carcinoma and MDA-MB-468 breast carcinoma. Cells were grown in complete medium to confluency in a 12-well plate, and subsequently serum-starved overnight to synchronize at G0. The following day, cell culture medium was removed and the cell monolayers were wounded by scraping with a pipette tip attached to suction. Non-adherent cells were removed by gentle washes with phosphate buffered saline (PBS) and complete growth medium was added to each well, in either the absence or presence of mAb AN-17 (at 1 μg/ml). The wound area was imaged every hour for 0-24 hours. Wound closure was measured in image series using AnalySIS LS Research Software (Olympus) to determine the area of the wound on each day. Experiments were repeated in triplicate with at least six wound areas observed per growth condition.

[3] = system: NCI-H1573 lung adenocarcinoma; assay: In vitro wound repair assay; format: cell-based; conditions: mAb 1 μg/ml; 16 hrs
Experimental: as §1, §2

[4] = system: BT16 atypical teratoid rhabdoid (brain) carcinoma; assay: In vitro wound repair assay; format: cell-based; conditions: mAb 1 μg/ml; 16 hrs
Experimental: as §1, §2

[5] = system: KRT14+ CTCs; assay: Flow cytometry detection of circulating tumour cells in blood of mice bearing ID8 iRFP720+ epithelial ovarian tumours; format: cell-based; conditions: confirmed by iRFP720+ status
Experimental: Flow cytometry was carried out according to standard protocols (PMID: 30602661), with data acquired using a BD LSRFortessa X-20 (BD Biosciences) and analysed using FlowJo software v10.5.0 (BD Biosciences). Samples assessed for KRT14+ cell populations included OVCAR3, CAOV4, ID8 mouse ovarian cancer cells, ascites-derived ovarian cancer cells derived from a clinical specimen (designated #3.1937-07) and cardiac blood from a mice bearing 12-week old epithelial ovarian tumours. For cell lines, 1×10^6 cells per cell line were incubated with either mAb AN-17 (1:200 dilution) or a commercially available anti-KRT14 polyclonal antibody (Sigma SAB4501657; 1:50 dilution) as a positive control for 45 mins in non-immune serum at room temperature. The secondary antibodies, goat anti-mouse Alexa647 (mAb AN-17) or goat anti-rabbit IgG Alexa 488 (commercial Ab), were diluted 1:500 and incubated for 30 minutes. For blood samples, 2×10^6 cells were incubated with an Alexa Fluor®488-conjugated mAb AN-17 antibody for 45 minutes. Following PBS washes, cells were resuspended in PBS/2% FBS data was acquired using a BD LSRFortessa X-20 (BD Biosciences) flow cytometer.
Expression of extracellular KRT14 also marks the circulating tumour cell (CTC) population.

[6] = system: SW620 colorectal carcinoma; assay: In vitro wound repair assay; format: cell-based; conditions: antibody 1 μg/ml; 16 hours
Experimental: as §1
(§3) In vitro wound repair assays were conducted using AN3CA endometrial carcinoma and SW620 colorectal carcinoma lines. Cells were grown in complete medium to confluency in a 12-well plate, then serum-starved overnight to synchronize at G0. The following day cell culture medium was removed, and cell monolayers were wounded by scraping with a pipette tip attached to suction. […] Wound closure was measured in image series using AnalySIS LS Research Software (Olympus) to determine the area of the wound on each day. […]

[7] = system: AN3CA endometrial carcinoma; assay: In vitro wound repair assay; format: cell-based; conditions: antibody 1 μg/ml; 16 hours
Experimental: as §1, §3

[8] = system: Murine ID8 ovarian tumour; assay: Treatment of established primary ID8 ovarian tumours in syngeneic mouse model; format: in vivo, C57BL/6 mice; conditions: 5 mg/kg i.p. bi-weekly for 3 weeks
Experimental: Mice with primary tumours (n=10/group) received mAb AN-17 at 5 mg/kg by intraperitoneal injection bi-weekly, for a period of 3 weeks. Control animals received an equivalent dose of isotype-matched control IgG kappa antibody (Control Group 1); or and equivalent volume of vehicle (PBS) alone (Control Group 2). Following 3 weeks of bi-weekly treatment (Mondays and Thursdays), all mice were culled and assessed for tumour size and weight. Two additional, non-tumour bearing animals were used as non-surgical controls.

B1: mAb AN-17: monoclonal anti-KRT14 antibody; heavy chain variable region SEQ ID NO:3, light chain variable region SEQ ID NO:5 (clone AN-17A RG4.E5b.A7.B4) (antibody, listed as Mus musculus, V domains shown)
VH: QVQLKESGPGLVAPSQSLSITCTVSGFSLSRYSVHWVRQPPGKGLEWLGMIWGGGSTDYNSALKSRLSISKDNSKSQVFLKMNSLQTDDTAMYYCARKDYGYSYFDYWGQGTTLTVSS
VL: DVLMTQTPLSLPVSLGDQASISCRSSQSIVHSNGNTYLEWYLQKPGQSPKLLIYKVSNRFSGVPDRFSGSGSGTDFTLKISRVEAEDLGVYYCFQGSHVPFTFGSGTKLEIKRADAAPTVS
For B1, the “cross-reactivity with protein antigens on arrays” value [1] was “did not react with any of the proteins present on the arrays tested; also recorded: No cross-reactivity was evident”, the “cross-reactivity with protein antigens on arrays” value ([1]; listed as mAB AN-17) was “did not react with any of the antigens present on the array, including several related keratin proteins” and the “wound closure / migration, MDA-MB-468” value [2] was “failed to close the wound; also recorded: impaired”. For the same molecule, the “wound closure / migration, NCI-H1573” value [3] was “failed to close the wound; also recorded: impaired”, the “wound closure / migration, BT16” value [4] was “failed to close the wound; also recorded: impaired” and the “identification of circulating tumour cells from whole blood” value [5] was “able to detect and isolate KRT14+ CTCs”. For the same molecule, the “identification of circulating tumour cells from whole blood” value ([5]; listed as mAB AN-17) was “able to correctly identify iRFP+ cells from whole blood”, the “wound closure / migration, SW620” value [6] was “failed to close the wound; also recorded: impaired” and the “wound closure / migration, AN3CA” value [7] was “failed to close the wound; also recorded: impaired”. For the same molecule, the “adverse effects during treatment” value [8] was “had no observable adverse effects on animals; also recorded: no adverse effects noted during the treatment period” and the “primary ovarian tumours at cull / tumour progression” value ([8]; n=10/group) was “no tumours could be identified; also recorded: complete regression”.
